In the supplement of paper PMC11246515:
± gives the standard deviation of the averaged measurements.

Test: total protein half-life in vivo (active degradation + dilution); higher = more stable protein
[1] = wild type E. coli NCM3722, growth: C-lim chemostat, doubling time 12 h
[2] = E. coli NCM3722 delta-clpP delta-lon delta-hslV, growth: N-lim chemostat, doubling time 6 h
[3] = E. coli NCM3722 delta-lon, growth: N-lim chemostat, doubling time 6 h
[4] = E. coli NCM3722 delta-clpP, growth: N-lim chemostat, doubling time 6 h
[5] = E. coli NCM3722 delta-hslV, growth: N-lim chemostat, doubling time 6 h
[6] = E. coli NCM3722 delta-smpB, growth: N-lim chemostat, doubling time 6 h
[7] = wild type E. coli NCM3722, growth: C-lim chemostat, doubling time 3 h
[8] = wild type E. coli NCM3722, growth: C-lim chemostat, doubling time 6 h
[9] = wild type E. coli NCM3722, growth: N-lim chemostat, doubling time 6 h
[10] = wild type E. coli NCM3722, growth: N-lim chemostat, doubling time 12 h
[11] = wild type E. coli NCM3722, growth: P-lim chemostat, doubling time 6 h
[12] = wild type E. coli NCM3722, growth: P-lim chemostat, doubling time 12 h

Sequence	total protein half-life in vivo [1] [h]	total protein half-life in vivo [2] [h]	total protein half-life in vivo [3] [h]	total protein half-life in vivo [4] [h]	total protein half-life in vivo [5] [h]	total protein half-life in vivo [6] [h]	total protein half-life in vivo [7] [h]	total protein half-life in vivo [8] [h]	total protein half-life in vivo [9] [h]	total protein half-life in vivo [10] [h]	total protein half-life in vivo [11] [h]	total protein half-life in vivo [12] [h]
MEKENITIDPRSSFTPSSSADIPVPPDGLVQRSTRIKRIQTTAMLLLFFAAVINYLDRSSLSVANLTIREELGLSATEIGALLSVFSLAYGIAQLPCGPLLDRKGPRLMLGLGMFFWSLFQAMSGMVHNFTQFVLVRIGMGIGEAPMNPCGVKVINDWFNIKERGRPMGFFNAASTIGVAVSPPILAAMMLVMGWRGMFITIGVLGIFLAIGWYMLYRNREHVELTAVEQAYLNAGSVNARRDPLSFAEWRSLFRNRTMWGMMLGFSGINYTAWLYLAWLPGYLQTAYNLDLKSTGLMAAIPFLFGAAGMLVNGYVTDWLVKGGMAPIKSRKICIIAGMFCSAAFTLIVPQATTSMTAVLLIGMALFCIHFAGTSCWGLIHVAVASRMTASVGSIQNFASFICASFAPIITGFIVDTTHSFRLALIICGCVTAAGALAYIFLVRQPINDPRKD	5.28											
MARLAAFDMDGTLLMPDHHLGEKTLSTLARLRERDITLTFATGRHALEMQHILGALSLDAYLITGNGTRVHSLEGELLHRDDLPADVAELVLYQQWDTRASMHIFNDDGWFTGKEIPALLQAFVYSGFRYQIIDVKKMPLGSVTKICFCGDHDDLTRLQIQLYEALGERAHLCFSATDCLEVLPVGCNKGAALTVLTQHLGLSLRDCMAFGDAMNDREMLVSVGSGFIMGNAMPQLRAELPHLPVIGHCRNQAVSHYLTHWLDYPHLPYSPE		5.84 ± 0.52	1.61									
MKNVGFIGWRGMVGSVLMQRMVEERDFDAIRPVFFSTSQLGQAAPSFGGTTGTLQDAFDLEALKALDIIVTCQGGDYTNEIYPKLRESGWQGYWIDAASSLRMKDDAIIILDPVNQDVITDGLNNGIRTFVGGNCTVSLMLMSLGGLFANDLVDWVSVATYQAASGGGARHMRELLTQMGHLYGHVADELATPSSAILDIERKVTTLTRSGELPVDNFGVPLAGSLIPWIDKQLDNGQSREEWKGQAETNKILNTSSVIPVDGLCVRVGALRCHSQAFTIKLKKDVSIPTVEELLAAHNPWAKVVPNDREITMRELTPAAVTGTLTTPVGRLRKLNMGPEFLSAFTVGDQLLWGAAEPLRRMLRQLA [P0A9Q9]	9.4 ± 0.89	4.6 ± 1.1	4.54 ± 0.57	3.96 ± 0.59	3.75 ± 0.11	3.49 ± 0.27	2.97 ± 0.19	5.55 ± 0.092	3.76 ± 0.22	5.831 ± 0.054	5.76 ± 0.3	11 ± 1.3
MSMIKSYAAKEAGGELEVYEYDPGELRPQDVEVQVDYCGICHSDLSMIDNEWGFSQYPLVAGHEVIGRVVALGSAAQDKGLQVGQRVGIGWTARSCGHCDACISGNQINCEQGAVPTIMNRGGFAEKLRADWQWVIPLPENIDIESAGPLLCGGITVFKPLLMHHITATSRVGVIGIGGLGHIAIKLLHAMGCEVTAFSSNPAKEQEVLAMGADKVVNSRDPQALKALAGQFDLIINTVNVSLDWQPYFEALTYGGNFHTVGAVLTPLSVPAFTLIAGDRSVSGSATGTPYELRKLMRFAARSKVAPTTELFPMSKINDAIQHVRDGKARYRVVLKADF	11 ± 1.4	5.793 ± 0.025	5.65 ± 0.11	5.68 ± 0.17		5.22 ± 1.4	2.17 ± 0.36	6.43 ± 1.3	5.42 ± 0.12	10.8 ± 0.24	5.84 ± 0.26	11.9 ± 0.73
MSIQLNGINCFYGAHQALFDITLDCPQGETLVLLGPSGAGKSSLLRVLNLLEMPRSGTLNIAGNHFDFTKTPSDKAIRDLRRNVGMVFQQYNLWPHLTVQQNLIEAPCRVLGLSKDQALARAEKLLERLRLKPYSDRYPLHLSGGQQQRVAIARALMMEPQVLLFDEPTAALDPEITAQIVSIIRELAETNITQVIVTHEVEVARKTASRVVYMENGHIVEQGDASCFTEPQTEAFKNYLSH [P0AAF6]	11.9	6.06 ± 0.7	5.57 ± 0.91	5.54 ± 0.19	6.4	4.77 ± 0.37	> 4	6.19 ± 0.35	5.55 ± 0.86	10.5 ± 0.48	6.11	11.6 ± 0.25
MTIVRIDAEARWSDVVIHNNTLYYTGVPENLDADAFEQTANTLAQIDAVLEKQGSNKSSILDATIFLADKNDFAAMNKAWDAWVVAGHAPVRCTVQAGLMNPKYKVEIKIVAAV [P0AEB7]	13.5 ± 0.29	5.7 ± 0.14	5.51 ± 0.45	5.4 ± 0.17	4.95 ± 0.36	5.45 ± 0.95	3.02 ± 0.18	7.21 ± 0.84	6.27 ± 1.3	11.2 ± 0.66	6.16 ± 0.16	12 ± 2.1
MKRLSITVRLTLLFILLLSVAGAGIVWTLYNGLASELKWRDDTTLINRTAQIKQLLIDGVNPDTLPVYFNRMMDVSQDILIIHGDSINKIVNRTNVSDGMLNNIPASETISAAGIYRSIINDTEIDALRINIDEVSPSLTVTVAKLASARHNMLEQYKINSIIICIVAIVLCSVLSPLLIRTGLREIKKLSGVTEALNYNDSREPVEVSALPRELKPLGQALNKMHHALVKDFERLSQFADDLAHELRTPINALLGQNQVTLSQTRSIAEYQKTIAGNIEELENISRLTENILFLARADKNNVLVKLDSLSLNKEVENLLDYLEYLSDEKEICFKVECNQQIFADKILLQRMLSNLIVNAIRYSPEKSRIHITSFLDTNSYLNIDIASPGTKINEPEKLFRRFWRGDNSRHSVGQGLGLSLVKAIAELHGGSATYHYLNKHNVFRITLPQRN	10.1	5.59 ± 0.15		6.99 ± 0.076	6.03 ± 0.26	5.75 ± 0.48	3.13 ± 0.66	7.13 ± 0.64	6.174 ± 0.057	12.98 ± 0.022	5.63 ± 0.89	13.4 ± 0.56
MSQPRPLLSPPETEEQLLAQAQQLSGYTLGELAALVGLVTPENLKRDKGWIGVLLEIWLGASAGSKPEQDFAALGVELKTIPVDSLGRPLETTFVCVAPLTGNSGVTWETSHVRHKLKRVLWIPVEGERSIPLAQRRVGSPLLWSPNEEEDRQLREDWEELMDMIVLGQVERITARHGEYLQIRPKAANAKALTEAIGARGERILTLPRGFYLKKNFTSALLARHFLIQ	8.72 ± 0.48	5.31 ± 1.2	5.21 ± 0.38	4.23 ± 0.2	3.6 ± 0.27	3.89 ± 0.26	2.83 ± 0.25	5.16 ± 0.45	4.92		5.79	8.63 ± 0.7
